Measured values reported in the RNAGym collection of RNA variant scans (doi:10.1073/pnas.2313332121).
Variants at the floor of the assay were thinned out.

B1: TPR 5TU (parent)
chain: GGAUCUUCUCGAUCUAACAAAAAAGACAAAUCUGCCACAAAGCUUGAGAGCAUCUUCGGAUGCAGAGGCGGCAGCCUUCGGUGGCGCGAUAGCGCCAACGUUCUCAACUAUGACACGCAAAACGCGUGCUCCGUUGAAUGGAGUUUAUCAUG

Variants of: B1
Assay: polymerase ribozyme fitness, log enrichment relative to wild type (log ratio); higher = more active; in vitro selection for triplet polymerase activity
Procedure, shortened: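 Each subunit of a heterodimeric triplet polymerase ribozyme was represented by a PCR-built, transcribed mutant library that underwent triplicate single-round in vitro selection with frozen incubation at −7 °C. Extended constructs were recovered by gel excision, streptavidin-bead capture and RT-PCR, and Illumina sequencing of input and output libraries kept genotypes with ≥10 input reads and ≥1 read per output. Fitness is the logarithm of genotype enrichment relative to wild-type enrichment, from inverse-variance-weighted replicate averages, with a logarithm base of 2.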

| Variant | polymerase ribozyme fitness (log ratio) |
| --- | --- |
| U31G G68A C75G C105G C131G U139G | ≤ -4.2 |
| C32G A110C | ≤ -4.2 |
| U33A U56A C93A G94A A110C A120G U134G U145G | ≤ -4.2 |
| G34A C38A C76G C99G U104A A107U G143A | ≤ -4.2 |
| U31A A120G | 0.523 |
| C32A G86C | ≤ -4.2 |
| U31A G46A U82C A89G U145C | -3.66 |
| U33G A41U C51A G67C C72U | -3.95 |
| C32A A37G C54A G86C C99A A113G C125U U135A | ≤ -4.2 |
| G34A C36U A60C G71A G84A | ≤ -4.2 |
| A30G C57U | -2.81 |
| U33C C125A | -3.35 |
| C32G C76A C87A | ≤ -4.2 |
| C32G C79G C103G C105U A119U G140U | ≤ -4.2 |
| C32G C72G C87A A98G | ≤ -4.2 |
| A30U G46A U55A G74A U145A | ≤ -4.2 |
| U33C C87A | -3.95 |
| U33G A98U G124C | -3.27 |
| C32G A60G U144G | ≤ -4.2 |
| C32G C57U G83U C103A C116U U127G G143U | ≤ -4.2 |
| U31C C32A C38U U56A G86A A98U | -4.14 |
| A30G G83U G117A | ≤ -4.2 |
| U31C G94C | 0.811 |
| A30U G68C G81C G94A A98C U104C | ≤ -4.2 |

| Variant | polymerase ribozyme fitness (log ratio) |
| --- | --- |
| U33G C43G A66G C93A C95U C118G | ≤ -4.2 |
| U31G C96U C99U U127G | ≤ -4.2 |
| A30G A49G | ≤ -4.2 |
| C32G A37U U53A | ≤ -4.2 |
| U33A G84A | -3.81 |
| C32A A52G U53A G65C C99U G143U | ≤ -4.2 |
| U31G G84U | -0.431 |
| A30G A91U | -4.18 |
| G34A A39C C93A U104C | ≤ -4.2 |
| C32A G50A C57A U82A C99A U101A | ≤ -4.2 |
| U31G C99G U102G C108A C125U U127G U145G | ≤ -4.2 |
| U31G A40G C54A C93A C103A U109A U134A G136U | ≤ -4.2 |
| C32U G126U | -2.43 |
| U31A A37U U90G C93U C125G G141A | ≤ -4.2 |
| A30U U55A C79U C87U A115C C118G | ≤ -4.2 |
| U33G C36A G50A A52C G84A A97C A138C | -3.92 |
| C32U C96G U130G | -3.47 |
| A30C G50C G65A G84A U109G A142U | ≤ -4.2 |
| U31A A47G A73U G83A | -3.5 |
| A30C C93U | ≤ -4.2 |
| A30C U55A C57G C93U C105G G124U | ≤ -4.2 |
| C32U G59U C85U A115G | -3.62 |
| U31A A52C U104G U134G | ≤ -4.2 |
| U31C G34A U56G A60G A73G G84A A89U | ≤ -4.2 |

| Variant | polymerase ribozyme fitness (log ratio) |
| --- | --- |
| C32U U44A A91G C118A | ≤ -4.2 |
| U31A C95G A119U | -1.25 |
| U31C G92A C118G | -2.66 |
| C32U G68A | -3.89 |
| A30C C69G C76A G94A G140A | ≤ -4.2 |
| U31G C35A A47C G74U C87G A142C | ≤ -4.2 |
| G34U A41U G84A U145C | -3.69 |
| C32G U56A | -4.1 |
| G34C C93A A106U | ≤ -4.2 |
| U31G G48C U111G G143A | ≤ -4.2 |
| A30G A41G A52G | -2.03 |
| U33A A40U C57U G86U G112A | ≤ -4.2 |
| A30U C38G C93U | ≤ -4.2 |
| A30C C105U | ≤ -4.2 |
| A30G A52C A60C C125U | ≤ -4.2 |
| C35A A40U A49G C87A G112C | ≤ -4.2 |
| C32U U77A A89U C93U A106U | ≤ -4.2 |
| U31A G100U | ≤ -4.2 |
| G34A U56C G126U | -1.64 |
| G34C C85G G141U | -4.04 |
| G34C C57U G80C C149U | ≤ -4.2 |
| C32A C69A U145C | -3.25 |
| A30C U56A C57G C87U U102G G143C | ≤ -4.2 |
| C32G A41C A60U G92U G140C | ≤ -4.2 |

| Variant | polymerase ribozyme fitness (log ratio) |
| --- | --- |
| U33C C93A C99G G128U | ≤ -4.2 |
| U31G C93U C99U C116A A119G A142C | ≤ -4.2 |
| U31A G86U C99U | -1.18 |
| G34C U61G A150G | ≤ -4.2 |
| A30U A89U C93U A120G C125G G141A G143A A147C | ≤ -4.2 |
| A30U G83A C95A U135G | ≤ -4.2 |
| U31G C54G A60G C85A C99A | ≤ -4.2 |
| U33G C36U A60U C87U A91G C108A U109A | ≤ -4.2 |
| U31C G58C C95G A97G G143A | -2.96 |
| A30C C75G G81U C87U A120U | -4.16 |
| A30U C96U | -3.12 |
| A30G A37C G94C | ≤ -4.2 |
| U33G U44A C93A C103A C105G G133C | ≤ -4.2 |
| U33C C43G G50C G58A G86A C105A A137G | ≤ -4.2 |
| A30G | -2.24 |
| A30U | -2.87 |
| A30U U53G G84A | -4.15 |
| U33G C43A C57A A60C G74A G83A C85G A150U | ≤ -4.2 |
| A30C G74C C75A C76U G84U C87A C116G | ≤ -4.2 |
| G34U G83U A91C C99U A107U | ≤ -4.2 |
| U33C A47G C93U C103A C132U A137C | ≤ -4.2 |
| C32A A47C A122G A147C | ≤ -4.2 |
| U33G G42A A49G C95G | ≤ -4.2 |
| G34A A37G U61C | ≤ -4.2 |

| Variant | polymerase ribozyme fitness (log ratio) |
| --- | --- |
| U31G G34A U61A C85G | ≤ -4.2 |
| C32G A40C G83C A110U U111C | ≤ -4.2 |
| C32A U55G C69G | -3.22 |
| U33G G58A G86A | -4.02 |
| U33G C85U U139G | -3.72 |
| U33G C51U G80U C87A C96U A120G C129A U148G | ≤ -4.2 |
| C32U G68A G80C C96G A150U | ≤ -4.2 |
| A30G C149G | ≤ -4.2 |
| A30U U78C G94U A98G G152A | ≤ -4.2 |
| A30U C32A C54U C87A A107U | ≤ -4.2 |
| U33A G80C C99U C131U | ≤ -4.2 |
| A30G C54U A91U U102G U109G A110G G133C A147U | ≤ -4.2 |
| U31G G48U G58A C79A C85U U101G | ≤ -4.2 |
| G34A G94U U101A | ≤ -4.2 |
| U31A C103U | 0.00968 |
| A30U U56A C93U G141A | ≤ -4.2 |
| C32U A60G | -1.63 |
| U31G G50U U82C A147U | -0.72 |
| C32G C57A G59A G74A C85U A120G U144C | -2.27 |
| C32A U56A C103G A107U | ≤ -4.2 |
| U31C C85G A89G C93U | ≤ -4.2 |
| A30G C32G C85G U90C C93G U111G A113U | ≤ -4.2 |
| C32U A52U G84U | ≤ -4.2 |
| C32U U56A G74A | 0.713 |

| Variant | polymerase ribozyme fitness (log ratio) |
| --- | --- |
| C32G C72G C87G C114U U139A | ≤ -4.2 |
| C32G C72U | -4.2 |
| C32U A40C | -4.1 |
| C32G G94A A97U | ≤ -4.2 |
| C32U C75U G81A G84C A121C U127C A138G G140A | ≤ -4.2 |
| C32G C108G G140U G141A U145G | ≤ -4.2 |
| A30U G94A G141A | ≤ -4.2 |
| A30U C38U G50C U56G G83U A137C | ≤ -4.2 |
| U31A U78C U146C | -0.876 |
| G34U G84A C95U C114G | -4.02 |
| U33C A91U | -3.67 |
| G34C U56A G128A U135C G140U | ≤ -4.2 |
| U31A C38G G86A G136A | -1.16 |
| A30G A49G U56A A66U C79U C85U G128A | ≤ -4.2 |
| C32G G81A | -4.14 |
| G34U U55A A60C A73C C85U G136C U144A | ≤ -4.2 |
| C32G G42C A47G G59C A91U A107G | ≤ -4.2 |
| G34U G58U C87A A98C G143C | ≤ -4.2 |
| C32U C51G G70A C76U G83U G84A A98G U135G | ≤ -4.2 |
| U31A C116U | -0.00779 |
| G34A A41C C54A U55A C95A C103A A150C | ≤ -4.2 |
| U31G A49C A52G A97C A120U U135C U148G | ≤ -4.2 |
| A30G A47U U53A C76G C96U C118A | ≤ -4.2 |
| U33C U45A C85G G133U | ≤ -4.2 |

| Variant | polymerase ribozyme fitness (log ratio) |
| --- | --- |
| G34A U55G G88U C105A | ≤ -4.2 |
| A30G A41U U55G C93U | ≤ -4.2 |
| U31A U53A G83U G100C G133A | ≤ -4.2 |
| A30U C32U G50U C51U U82C A106U A119C | ≤ -4.2 |
| U31G C38A U45A G83C C95A | ≤ -4.2 |
| A30C U31A U44A U55A C57G C76G | ≤ -4.2 |
| U31G A52G U55G A98U | -0.355 |
| C32U G68U C87G C99G | -4.11 |
| C32U C43A C87G A107C C118U G124C | ≤ -4.2 |
| C32G A47G C72A A73C C96A U127C | ≤ -4.2 |
| G34U C76U C87U G124U | ≤ -4.2 |
| G34U A47C G67A C79A G84C C95A C123G U135G | ≤ -4.2 |
| C32G U33G G92A C114U | -4.15 |
| U33A A39U C54U G92A C96G A106U A137G A138C | ≤ -4.2 |
| U33G C76U A97U A119C | ≤ -4.2 |
| C32A G80U C96U A138U | ≤ -4.2 |
| U31C A64G G84A A91U C99A U135C G141C | ≤ -4.2 |
| G34A U77A G88A | ≤ -4.2 |
| G34U A47G G92U C99U A119C U146A | ≤ -4.2 |
| U31A C38G G58A | 0.153 |
| U33G C38A A39U C76U C99U A150U | ≤ -4.2 |
| U33A G71U C79G C87G C95G | ≤ -4.2 |
| C32G G88C | -3.96 |
